Source: the DeepSol protein solubility set

Assay: soluble on expression in E. coli; label from the status in PepcDB or PDB records

Sequence | soluble on expression in E. coli
MKITDLRCAVIGKHPIVRIVTDEGLHGLGEVEFTKTYLKPFVLHFREALIGEDPTDVERVMLKIRQRGSFKPYGAAVSAIEHALWDIAGKAAGVPVYKLLGGKVRDKVRVYNGSIRRKRAGDRPEDYAADVKWMMEQPQNFFMVKQGISFHSNMKDSIEGFHYGVTQKKAGYHGAMDQGVISERGFNHMLDCVIAMKEVLGDKVSLALDCGPGWMLPDAIKFARAVEKYNLMWLEDMLTGDYVPWVNPQAYRELTTSTSTPIHTGEQIYLRHNFKELIETQAVRVIGPDPADIGGIAELKWVAEHAYMHSILMAPHGTANGLLGLGALINVCATLPANYVAFEYPSASDPWWEDLVIGLPAQIVRDSMVDLLEAPGLGLDIDAEAARKYLGEEDAGFFD | not soluble
MGSDKIHHHHHHMTEKKTMLEKLKKLMHHFTLSLDDISVETSRARQLSIRTEIDRLRSNERYKEPKSLIPFGGKIYSQNDEDGIIREIFNRIGTTNKVFVEFGIGNGLENNTLALLFEDWQGLWIDASSDSITSIRNHFSEIIGSGKLAVVESFITKANIDNLIATNVKHREIDLLSVDIDGNDYHVLQAISCITPRVIVIEYNAKFAPPVLFCMDYTETHMWTGDDCFGASLKFLETNLNKMGYCLVGCNLTGANAFFIRRELVTNKFLEPFTAENHFEPARYYLSGYASGHTPTYETLARSLTMRVS | not soluble
MLRKLWKRPHSTWNKITAVTNVSSEKTITDGQLSEKARKDVDHDVDRTIYDIPLEYCHLRIPKSRTSRSCPDPWRRYGAHVKLCEVGGWMPENRNKNSKVIVVKKGSAPPAAPRCKPLMTVEDYLGVLRK | not soluble
PVYVDFDVPADLEDDALEALEVARDTGAVKKGTNETTKSIERGSAELVFVAEDVQPEEIVMHIPELADEKGVPFIFVEQQDDLGHAAGLEVGSAAAAVTDAGAAATVLEEIADKVEELR | soluble
MGSDKIHHHHHHMNINISGKRVLVTASTEGIGRGIAEAFLREGCNVVISSRNKDKIEKAILEMRKIGPSVWGFPADLTDFKSLEELVGYALKIMNGIDILVVNSGNPPKEPSYFFENTMEDWEYATKLYLLSAIKLTNLVYQYMKAQRWGRIFFLSSWTIKEPQRIFSLADITRAPLIQMAKLLSKELGEYNVNVNVILMGSFETEGAKRSLKKYAEKVGQPLDVIWKREVISQIPIGRTGDIKNELGSLLVFLSSDYAGYINGTSILIDGGMSRAI | not soluble
MLDPELIGNPEDILEKPALKILGKEVEVYDLSNPFGYGVPLWPYFNDVIIDRYHYHAKSRVLSQIITTTMHVSTHADAPIHVEEGFPSIDEVPIERYMGEGVVVSIPKKKWEVITAEDLEKADPPIEKGDIVIVNTGWHRYWSDSVKYFCYAPGFYKEAGEWFVKKKVKAVGIDTQALDHPLATREAWHHPGADERNSILPWLKEEYKQLTGRDVSEDFPYWEPCHRLLLTHGIMGWENVGGDIDKVTGQRCTIIGLPIRWVKGDGSIVRLVALVEKR | soluble
MGSDKIHHHHHHVSQLTPWQHYQQDLTRDDFSHDAAQEQAVKSLQRVYDELIVAAKPASSVSKLFSAIGIKSTPTPVKGLYLWGGVGRGKTYLMDTFFDALPTDRKLRAHFHRFMHQIHNDLGELKGVQDPLLTIAKKMASQYQIICFDEFFVSDITDAMLLGTLFQALFKEGVALVATSNIIPDELYKNGLQRVRFLPAIALINQHCEILNVDSGIDYRLRTLEQAEIYHYPLDEQADINLLHYFDQLAPESEKLTAPIDVDGRAIRIRQQSQGVLLINFRDLCDGPRSQRDYMEMACLYHTVLVSGLEQMGSQQTGDDIARRFLAMVDEFYERNVKLIISAQVELEHIYTDGQLNFEFRRCRSRLIEMQSREYLALEHLP | not soluble
GPGSMHEDGQFLRAFLLRVLANDMQRMLATNTCATYFRNIPLEPEYDASGNRTNTPENVVMEKRLRVMDDISKLLRTYVERAEYAANKSKDINRRIYFTAEQIETGDYGALIGPRGLVHQQLEKETNCHIVLVGRGITNPLKDTNPNAASMALEDPHVRITATTEEDLQTAAERIEWILSDEPEAVEFRENNRRRMAQVDGRYDPRTWMTAAEKRKKAAAEKAAAAGGAAAGEDETKAEKGRKREREEAPVEEEDTELNEFLEDL | soluble
MSEESQAFQRQLTALIGYDVTDVSNVHDDELEFTRRGLVTPRMAEVASRDPKLYAMHPWVTSKPLPEYLWKKIANNCIFIVIHRSTTSQTIKVSPDDTPGAILQSFFTKMAKKKSLMDIPESQSEQDFVLRVCGRDEYLVGETPIKNFQWVRHCLKNGEEIHVVLDTPPDPALDEVRKEEWPLVDDCTGVTGYHEQLTIHGKDHESVFTVSLWDCDRKFRVKIRGIDIPVLPRNTDLTVFVEANIQHGQQVLCQRRTSPKPFTEEVLWNVWLEFSIKIKDLPKGALLNLQIYCGKAPALSSKASAESPSSESKGKVQLLYYVNLLLIDHRFLLRRGEYVLHMWQISGKGEDQGSFNADKLTSATNPDKENSMSISILLDNYCHPIALPKHQPTPDPEGDRVRAEMPNQLRKQLEAIIATDPLNPLTAEDKELLWHFRYESLKHPKAYPKLFSSVKWGQQEIVAKTYQLLARREVWDQSALDVGLTMQLLDCNFSDENVRAIAVQKLESLEDDDVLHYLLQLVQAVKFEPYHDSALARFLLKRGLRNKRIGHFLFWFLRSEIAQSRHYQQRFAVILEAYLRGCGTAMLHDFTQQVQVIEMLQKVTLDIKSLSAEKYDVSSQVISQLKQKLENLQNSQLPESFRVPYDPGLKAGALAIEKCKVMASKKKPLWLEFKCADPTALSNETIGIIFKHGDDLRQDMLILQILRIMESIWETESLDLCLLPYGCISTGDKIGMIEIVKDATTIAKIQQSTVGNTGAFKDEVLNHWLKEKSPTEEKFQAAVERFVYSCAGYCVATFVLGIGDRHNDNIMITETGNLFHIDFGHILGNYKSFLGINKERVPFVLTPDFLFVMGTSGKKTSPHFQKFQDICVKAYLALRHHTNLLIILFSMMLMTGMPQLTSKEDIEYIRDALTVGKNEEDAKKYFLDQIEVCRDKGWTVQFNWFLHLVLGIKQGEKHSAHHHHHH | soluble
MGSDKIHHHHHHMDNLIIKPGYVTQFQCVGPECEDSCCYDWRISFDKKSYKNTIKHPLLATTAKSAFIETKKSTSDWADIRLNEQGACPFVNEHKLCDIHAKAGEQALSHTCKTYPRIHKVIGGNKYESLYLSCPEVTRLVLFNPNAFQFDSNISGIKQPSTPSPIWLEKTHEYSLDLLVNLGLDWEQVLLAIGLLIKVSDQVRQNILPIEELDKRLQQLKLYAQSGALAEQYKNLPYSPLPQMHAFIAVHNELCKTHSRGVRERFTSLNQAVAALCNEENNYQIDALNQAWAEHAVPALISHTDLFERYILYSIYHHHFPLIDSQQLSWEAFRLLVLDCFMIRSYLSAIAFKNKGLSESDIVMCFQLYQVVRQHKIEFTQSMSKTLEECGIDSVPAAICLLKTNI | not soluble
MTNLNYQQTHFVMSAPDIRHLPSDCGIEVAFAGRSNAGKSSALNTLTNQKSLARTSKTPGRTQLINLFEVVDGKRLVDLPGYGYAEVPEEMKRKWQRALGEYLEKRQSLQGLVVLMDIRHPLKDLDQQMIQWAVESNIQVLVLLTKADKLASGARKAQLNMVREAVLAFNGDVQVEAFSSLKKQGVDKLRQKLDSWFSELAPVEEIQDGE | not soluble
ELLKSGKAKDRFEGEENAPVTIVEYASLTCVHCAHFYNDVLPQIRKKYIKTGKVKLIFRDFAFDSRATAGFMLARCAPEDRYFPLIEVLFQKQSEWVWARDAVTPLKKIGLMAGFTDESFNACLKNQSILDEVNASFERGKELGVNATPTFFINGNKYEGAMSVEAFFSVIDSFLKN | not soluble
MPNELSRSLSPYLLMHANDPVEWRMWSKETLRIATEENRLIFLSIGYSSCHWCHVMHEESFVDPDVAEILNNNYIPVKVDREERPDLDSYFMKVSQVINGNGGWPLNIILLPDARPVFAMTYVPKEDRNGMTGLKTILIQLSQMYLKDPDQFKDQAKAVSDAMEERESV | soluble
MGSDKIHHHHHHMSNPAYTAMWEKLNLDIPAHDGLLEVLGKFYGDIYMSQQGRLQGMEYLDFVLSEVHGLRIQELQQAKEQGKKIIGTFCVFVPEEITLAAGAVHVGLCSGADAGTEEAEKLVPRNTCALIKSFIGFKLARLCPFTESCDLVVGETTCDGKKKAYEAFAEHVPMHVMEVPNTKSDAARDLFKTEVLRYMQALQQLTGTAITPQALASGIRAVNAKRRALQRLSALRSADPAPISGRDALLINQVSFYDDPERFTHSINALCDQMEERIARKEGIAPAGTPRLLLSGCPMAVPNWKLPYIMESSGAVIVGEESCIGTRNTRDLVDESQETLDGMIDALVDRYMKIDCACFTPNTERLHNVTAMAQELKADGIVHYALKFCQPYAHEAFKIEKAAREKDIPVLSVETDYSMEDAEQLKTRVEAFVEMVRG | not soluble
MGSDKIHHHHHHMENYQLRIAHLYGDLMNTYGDYGNVIAIKYYAKQIQVETDYHLISLGDSFKADDYDFVIFGGGQDYEESVTAKDLPSKSDEIKKYIENNDSLLAVCGGFQLLGTTMEFANGKIINGIGAMSHHTVNLNSSELFDNMRGKRLIGNIQIKNNESGETYHGFENHQGRTFLGKGEKALGTVVSGNGNNGDDKTEGVIYKQVYGTYFHGPILTRNGNLAKRILKNALLKRYPDIDWQAKLDGIPTESF | not soluble
MGSDKIHHHHHHMAITIQNHELQVTLKALGATMTSITDSQGVEYLWQGDATYWGGQAPILFPICGSVRNDCVIYRPAQAPHFTGIIPRHGFVRHKTFDYDYISDSSVRFTIKSSKEMLINYPYRFSLEITYTLRNKSIAITYIVKNLESEKNMPYAIGAHPGFNCPLFEKEVFSDYYLEFEQFETCTIPESFPDTGLLDLQARHPFLENQKQLSLNHALFEKDAITLDQLRSKTVYLKSRNHAKGIQLDFDDFENLILWTSNNGGPFLALEPWSSLSTSIEESDILEDKQNIVRLNPKQSKQHSIRITIL | not soluble
MGSDKIHHHHHHMSKTKEQVVELAQKHGITIQEGSLILNESGLDFQVVFALDVNGKRWVLRLPRREDVVPSTAKEKKTLELIAPHLSVQVPNWEVYSVEMIAYKQLKGVPAATIDHGKKAYVWEMDHTNVSDRFIDTLASGMASLHQIKQDEARRAGVPAEQATEARERMSVRMEKVKSEFGVSEPLWARWQKWLHHDALWPAETGLVHGDLHAGHILIGEQTEVTGFIDWTEAQVTDLSEDFVPHYRIFGEAALNRLIAAYEEAGGYVWPSMKEHVIEREAAFPVAIAEFALKSGIGEYKRMAKEVLGVAE | not soluble
MSLANKKFWLITDTHFDDEFTVGSSSKCLAIDCCHSNSIPRKGQENFISGSCGDYNCYSPLNVSESAFDYIAKHQSESKLIFWLMDVVPGDVITQSKETNKKRIQLQVEALKKRLSGFRIYPVPGNHDYWLSSNWQYPPQNQWMLDFMGDLFKDWLSPNALEQFKKGGFYTELIDSGVRIIALYLAYVDVYGSHCNEYVENDPAGMMKWFNETLELARKNGERVILLSHEGVGLKESGTIDVVPKFNEDFSYAMNEYSDIIISHLSGHSHFNSFRVLPNITKPTFHIIMNPAMTSFKNLNPRFRLYEYDRKNIKDYTNYMLNINKCNKNNKFEWEIEYNAKELFGIEEYTTKNLKEFIEQLAVDDELWTKFDSHYSTINRKCEGNCRKDLLCSIHCMKESEFITCINQKEGHHHHHH | not soluble
MDKKELVEKIALNTLVFETLGQPEKEREFTIQDLRRWGFDLILGKKNGVRTFFASQAGREVGDKWEEGGATYEIEEILLELPENKKLFAHIETSEGVAYIVAELREGKENLEILRTPAPTLLMAFFKKHRLHELANNLKSVGVITEFYKQRGRESLPLPYKKLPLVARDFLERAKKVEKMAGFGRVALAYFGKTREKDNRFRVSWLLPTIALFDIDISEKANTALEEFK | soluble
